{"source": "IntAct's records for PubMed 17948050", "parents": {"B1": {"name": "Mucosa-associated lymphoid tissue lymphoma translocation protein 1 (Homo sapiens), Q9UDY8 (parent)", "chain": "MSLLGDPLQALPPSAAPTGPLLAPPAGATLNRLREPLLRRLSELLDQAPEGRGWRRLAELAGSRGRLRLSCLDLEQCSLKVLEPEGSPSLCLLKLMGEKGCTVTELSDFLQAMEHTEVLQLLSPPGIKITVNPESKAVLAGQFVKLCCRATGHPFVQYQWFKMNKEIPNGNTSELIFNAVHVKDAGFYVCRVNNNFTFEFSQWSQLDVCDIPESFQRSVDGVSESKLQICVEPTSQKLMPGSTLVLQCVAVGSPIPHYQWFKNELPLTHETKKLYMVPYVDLEHQGTYWCHVYNDRDSQDSKKVEIIIGRTDEAVECTEDELNNLGHPDNKEQTTDQPLAKDKVALLIGNMNYREHPKLKAPLVDVYELTNLLRQLDFKVVSLLDLTEYEMRNAVDEFLLLLDKGVYGLLYYAGHGYENFGNSFMVPVDAPNPYRSENCLCVQNILKLMQEKETGLNVFLLDMCRKRNDYDDTIPILDALKVTANIVFGYATCQGAEAFEIQHSGLANGIFMKFLKDRLLEDKKITVLLDEVAEDMGKCHLTKGKQALEIRSSLSEKRALTDPIQGTEYSAESLVRNLQWAKAHELPESMCLKFDCGVQIQLGFAAEFSNVMIIYTSIVYKPPEIIMCDAYVTDFPLDLDIDPKDANKGTPEETGSYLVSKDLPKHCLYTRLSSLQKLKEHLVFTVCLSYQYSGLEDTVEDKQEVNVGKPLIAKLDMHRGLGRKTCFQTCLMSNGPYQSSAATSGGAGHYHSLQDPFHGVYHSHPGNPSNVTPADSCHCSRTPDAFISSFAHHASCHFSRSNVPVETTDEIPFSFSDRLRISEK"}}}
{"variants_of": "B1", "conditions": "with ubc_human UBC"}
{"variant": "K644R;K648R;K661R;K665R;K677R;K679R;K702R;K709R;K714R;K724R;K824R", "effect of a mutation on the interaction": "disrupting interaction"}
